# Source: the supplement of paper PMC12042874
# ± gives the uncertainty stated by the source.
# Experiment: amyloid nucleation score (Sup35N fusion, yeast selection) (log enrichment); library NNK1; higher = more nucleation; inactive = no reads after selection
# Outline: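 After 24 hours of induction with 100 μM copper sulfate, psi-negative yeast expressing peptides of 20 random codons fused to Sup35N were grown for 7 days at 30°C on medium lacking adenine and uracil. Input and output plasmid inserts were sequenced with Illumina, and sequences with under 100 input reads were discarded. Scores for nucleation are the DiMSum log enrichment of output over input reads, centred on the mode score of non-aggregating sequences.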
row,Substance,amyloid nucleation score
1,PCFRTYDCAISNLAVASRCR,1.03 ± 0.37
2,NIGYSLAVMSAMMLLHFNFG,2.95 ± 0.082
3,QRMACWYLDKLESLSKLACM,0.612 ± 0.82
4,LSATGGMGIRF,-0.318 ± 1.2
5,LLGDMMALQAYSELLRFMSG,-0.234 ± 0.61
6,MRFGLRYKALALRVFVEMTA,inactive
7,NVNETT,-0.547 ± 1.6
8,IVDVVLSMGLLYLTSVNY,-0.369 ± 0.74
9,ICSNVLFVLILEKEASFGCY,4.21 ± 0.051
10,YLIDSSTPDFR,0.314 ± 0.3
11,HGLGALYTSVRRARLGFFYC,4.23 ± 0.15
12,TTIQGRPVNVAAFRTTLLTR,-1.11 ± 2.7
13,GFCFCCRSGYARVIRFEART,-0.17 ± 0.48
14,LVLIAA,inactive
15,IRVSFCWSNLHNNYNSGRAT,5.02 ± 0.085
16,EHKWAANLDDMVHLDRHNMQ,0.435 ± 0.72
17,RSHGKAEFEHVGLKFIAG,-0.903 ± 1.7
18,FVRIRYITGRITSDRRREFC,0.591 ± 1
19,EPIVLTVCCFSPKDVSQDLN,0.749 ± 0.56
20,LSLTRAMGIYFRWVLSRSFG,-0.837 ± 2.4
21,RLIENFGPHYRSSPVFDVVV,1.33 ± 0.79
22,TSTLVMTNKMVLDSVE,-0.543 ± 0.25
23,NTLKNCCLYIAVRCNAP,-0.974 ± 1.2
24,SHKRIWDIFNIGFHQCD,0.048 ± 0.59
25,WTLRYRSARLVACMINTDEM,1.68 ± 0.46

row,Substance,amyloid nucleation score
1,TSTARISQPDNRVGLNF,-0.032 ± 0.44
2,FFIGFIL,1.59 ± 0.21
3,HTYSWKISDSSYPTFPELFW,0.121 ± 0.39
4,IGPGTWGLSLYRDRILITTM,-0.037 ± 0.89
5,HERFLRIQRVHREKKCKVCL,0.267 ± 0.77
6,SEMGINQKFLLGVQDTLHRY,-1.45 ± 1
7,LPSSGA,-0.019 ± 0.64
8,SYCFFYDDMRTWWFYS,4.4 ± 0.11
9,YFSTRKYTSKGYCVRTLFAY,-0.406 ± 0.27
10,MLFRYRSPHTVWLIRLCMKQ,0.839 ± 0.56
11,VCLVDSSWGW,3.86 ± 0.085
12,ESMDGFARR,0.654 ± 0.67
13,SDSGCEGESCQNRLISVGLL,-0.084 ± 0.46
14,QFSLPLCGYKRRHNGSFAEM,-1.14 ± 2.1
15,VNMRASSSMLTTVVAFIFPG,6.521 ± 0.047
16,MCKYVMRVLHIVAG,0.699 ± 0.42
17,CLYAIKLCM,6.82 ± 0.043
18,SMYVPCRFSTDSTMLPNELK,-0.19 ± 0.66
19,VTDCKLMCTVRPVSGSKTPV,0.139 ± 0.34
20,QCDVS,inactive
21,ECRVCL,-0.807 ± 2.4
22,RDMRLLAFRLPIRRFTRGST,-0.097 ± 0.44
23,AAMYSLICNPI,0.518 ± 0.3
24,SWLGPRWSFWFWFFIWSSGL,1.37 ± 0.74
25,TGNGRDVLHSSALKVPNRR,0.715 ± 0.43

row,Substance,amyloid nucleation score
1,ALFVVCYRYFVESGTKWRRT,-0.009 ± 0.28
2,NMTVITVVSWLCFVRRTHNA,-1.06 ± 0.82
3,VRACSCMDCDTVYRNVLSMG,-1.79 ± 2.4
4,SHIHCFFDDTTNTKKLVWPW,-0.563 ± 0.45
5,ASAFFRVWSLNKIICYEVSD,4.56 ± 0.051
6,GMCSEGTFKRQLISMHTCRT,0.247 ± 0.79
7,TVKSWKFNRFIGLKRSTESL,0.238 ± 0.42
8,GQFAFNMKNSLMNVVGVILE,inactive
9,IMFLRLFKGLCMKYSVRRDC,-0.512 ± 0.4
10,NCVTTNIGFN,0.124 ± 0.9
11,INQKSMMSSSDWRRWYFSGR,inactive
12,LRVQWRQSTFN,0.865 ± 0.48
13,LSWES,-0.866 ± 0.73
14,AVVERFHL,-0.132 ± 0.39
15,EIVSIS,-0.42 ± 1.2
16,PSYLCYVIPPPCINLVPMYP,-0.177 ± 0.23
17,SESSYGSSSRTTESSVCVSG,-0.008 ± 0.52
18,DIWDTAAAPGCRCRGNS,-0.363 ± 1.5
19,DRAGERMGIR,0.13 ± 0.28
20,FWYSNIYSIFMLPVIVWEPN,6.515 ± 0.053
21,CRTHDKCKDSGHSRLNGYSG,-0.299 ± 0.51
22,NYFNL,0.21 ± 0.46
23,SLDCLLYTLVDCRAFSFYKN,-0.359 ± 0.39
24,SFFRFVQNVSRSAGVSDSAM,-0.508 ± 0.42
25,FVHPLMYSDS,-0.386 ± 0.43

row,Substance,amyloid nucleation score
1,ATDSWDC,0.278 ± 0.33
2,FRVQVTYIFRSLEICDPTVG,inactive
3,KEFMRWHQTPRFVKKTHVRG,-0.834 ± 1.4
4,NLSTSMSRREIMQQHQHRRL,0.594 ± 0.64
5,IIFHICRTGEDLTKSGCLSW,-0.494 ± 1.1
6,PAMSVGQRFYGEQHSCGLSA,-0.583 ± 0.43
7,CERLKT,0.784 ± 0.35
8,NTGREVFIRIMCPL,-0.212 ± 0.73
9,SILTSNMGQSHVSMDVLVVW,inactive
10,RDLTKSDLMSVNAYMVIYRW,0.382 ± 0.31
11,LWFGSHLTNCVKYDLKGESV,1.41 ± 0.47
12,GDYVRWVRSGYLMQLLNEDS,-0.379 ± 0.75
13,YLAQL,0.558 ± 0.43
14,RFNYVYFINRNMNEPRRGSL,6.452 ± 0.061
15,VCGRGKGDD,-0.107 ± 0.27
16,YQKTNPMELWLPSL,inactive
17,SGSQY,-1.26 ± 1.7
18,TTIYRY,0.234 ± 0.9
19,AGSGMLSKLVLLSRKSVSCN,1.02 ± 0.74
20,SFLCCRVFLKSRRCRCGFMQ,6.01 ± 0.046
21,RRYRSWGGV,-0.267 ± 0.35
22,AEAISSYHGWSYYLHHTPFS,0.654 ± 1.2
23,ASSCLNSRFGCQRFLGYLWL,0.33 ± 0.39
24,WWGWKIDTNAQILARLCKCL,-0.005 ± 1.2
25,CPDLGYACWYIINRIPSTWC,-1.3 ± 1.2

row,Substance,amyloid nucleation score
1,GILLRH,-0.742 ± 1.2
2,LNHSYMICLFLCNR,6.95 ± 0.073
3,SNSLFNVSQSRSSKSLYQNA,0.264 ± 0.97
4,YKHWLYKLSCLEARSEYCGF,0.444 ± 1.1
5,LLASRPEG,-0.437 ± 0.35
6,LSEYVKEAVVDPRLTFARIA,-0.764 ± 0.89
7,HLICRFVHVNHCLVQQPKGS,1.37 ± 0.33
8,YNSRRAWDACCFGLVPLWEC,2.08 ± 0.3
9,TQLSMWSVRIKISYWVSGGV,0.804 ± 1.1
10,QYAIFRLSKTWIIHSMDKNA,0.269 ± 0.21
11,DPCSVGFVPPMVLGSLGGDV,-0.248 ± 0.71
12,LICSSYTNLALILHLWSKRF,0.209 ± 0.26
13,VLRFGRWSYFVGVLPEKKRQ,-1.18 ± 2.4
14,SKRCWGDGMDTFSAIVEAIW,-0.128 ± 0.54
15,NLQVKFVVYIMPLQKD,0.747 ± 0.44
16,GSDQLSTT,-0.338 ± 0.43
17,ENLVFTY,0.01 ± 0.28
18,IKIRAFDTSSCSQFRVRPRV,4.63 ± 0.095
19,RMVGYVRGMAFRRSVSRRIG,0.311 ± 0.68
20,GLRDACFSVLPVYLWVSNGD,0.281 ± 0.55
21,TCEESEDDGGIMAVPDWM,-0.42 ± 0.57
22,KSVDFTYDEGRSTAVIVYHF,0.223 ± 0.29
23,EVVFNYTKHQVTIAV,inactive
24,RACFRVIYWFSLLDKVGETV,-0.427 ± 1.1
25,SFVIYSKKCKNGSVNTVACS,0.142 ± 0.62

row,Substance,amyloid nucleation score
1,KVYTWVPPTMNYRMNLFIVR,0.036 ± 0.19
2,YMNNRLRWNRRHPYLSCFMS,1.1 ± 0.94
3,LGMKSVKWL,0.345 ± 0.53
4,SKSGGHASSNG,0.649 ± 0.85
5,KDCCMLDIYVEAWSGSFGRK,1.44 ± 0.2
6,SCNFLYGRRLFL,-0.127 ± 0.55
7,LCSMTKTNVVRSECRVLTRR,1.86 ± 0.65
8,RWSAFSVYAWGAYKLRC,2.41 ± 0.11
9,PRLMLYCSLYDIESFIIGRC,inactive
10,GFDIMYLILTPSCPATQSGM,inactive
11,YSVQIMSKNITWVKVCPASK,5.19 ± 0.071
12,HIKHSMMFGTYTK,-1.2 ± 0.72
13,NNQSTGWCETN,inactive
14,RHGVRYSKLELINTREFYNE,-0.246 ± 0.9
15,YSGHWLVHLPCHHQVR,-0.028 ± 0.46
16,TIAGHYYLWS,-0.291 ± 0.78
17,NWNFIRRSARVWSR,-1.7 ± 1.2
18,SVENQNIKRYT,1.28 ± 0.33
19,EQFNT,0.323 ± 0.56
20,RALFSIHNTAEGLSERWAAL,0.58 ± 1.2
21,GVSKCQDEYSGLGNRNYM,-1.28 ± 0.59
22,FSQYVGDFYILMRVSFEFMK,0.033 ± 0.44
23,GPQIGG,1.38 ± 0.17
24,SLFRVDYIDRFLSQFVEYNG,0.333 ± 0.55
25,IKIIAFFWLCSYHGWISWKS,-1.5 ± 1.1

row,Substance,amyloid nucleation score
1,ISQKNDAMNYYIGMSQM,1.52 ± 0.34
2,IFLGIFSGILYRLSHRLCS,inactive
3,VFYDNSARSVCNPNYGWTFS,0.181 ± 0.48
4,CIRREFSHDESDVNRSTWFI,0.391 ± 0.71
5,NYIVKAFSVVCFTSDTSSFR,6.08 ± 0.096
6,AMGARMFRNYRTACAHLLQW,0.019 ± 1
7,FRYGYLFKLSNVWIDDMLRR,1.96 ± 0.55
8,HLCFIADGQLRTVVVELFPI,0.576 ± 0.42
9,IKPANYA,-0.679 ± 0.53
10,TGYRSTYLNEVTPIRIMPHR,0.905 ± 0.4
11,VVCRVNTSVMGFKSNCRLGV,0.624 ± 0.6
12,YLAKISSHDPGIAMMEMTGR,0.315 ± 0.35
13,VVMLNFYCIRNRRVWIVNIC,3.76 ± 0.058
14,DSTSDMLHLIIRTMISLISR,-0.257 ± 0.35
15,LLHVYYFFISWPMFCMVYM,-0.203 ± 0.72
16,GMNPQTHAPVILTLGVQNIR,2.2 ± 0.14
17,TSQVSGRHVVSIDWTIWLSL,0.616 ± 0.66
18,FYRSQMIFFYMLVAPMWGRL,-0.599 ± 0.56
19,ESSNSLL,-0.244 ± 0.4
20,SELRSWFL,-0.109 ± 1.2
21,GNKPLVVHGSGGICKLCE,-0.147 ± 0.38
22,FNLALDRGR,-0.062 ± 0.32
